Consider 1 molecule from paper PMC8115288, “INI1/SMARCB1 Rpt1 domain mimics TAR RNA in binding to integrase to facilitate HIV-1 replication” (Nature Communications, 2021).

For the assay, the target named is T1, GST-CTD (C-terminal domain of HIV-1 integrase, aa 201-288) (HIV-1 (Hx3B), UniProt P04585 1348-1435).
T1 construct: Integrase (IN) of HIV-1, C-terminal domain aa 201-288; template HIV-1 Hx3B DNA (P04585 is isolate HXB2); also called IN-CTD; GST-IN-CTD(aa 201-288); source: pGEX3xPL construct; on glutathione sepharose 4B beads (pull-down) or as GST-tagged protein (AlphaScreen)
Description: AlphaScreen or HTRF; competition: GST-CTD (0.03 uM) with Bio-TAR RNA (0.1 uM), increasing INI1(183-304) as third component; low salt; four-parameter dose-response fit. The settings on record: both partners purified.

B1: His6-SUMO-INI1_(183-304) (domain or fragment, UniProt Q12824 183-304, looked up)
chain: PEVLVPIRLDMEIDGQKLRDAFTWNMNEKLMTPEMFSEILCDDLDLNPLTFVPAIASAIRQQIESYPTDSILEDQSDQRVIIKLNIHVGNISLVDQFEWDMSEKENSPEKFALKLCSELGLG
notes: INI1/SMARCB1, residues 183-304 (Rpt1, linker and part of Rpt2); Vector pET28a-h6-smt3; also called 6His-SUMO-INI1_(183-304); source: E. coli; clarified bacterial cell lysate for the pull-down
Take B1: the 50% inhibitory concentration (IC50) was around 5 nM.
